The target in test [1] is T1, CDK2-cyclin A^173−432 (human, UniProt P24941 1-298; P20248 173-432). Put plainly: fluorescence polarisation. Background: Fluorescence polarisation rises when a labelled molecule tumbles more slowly, as on binding a larger partner.
Test [2] addresses T1, CDK2-cyclin A^173−432. Put plainly: fluorescence polarisation. The source holds these as a separate data set.
In test [3] the target is T1, CDK2-cyclin A^173−432. Put plainly: ITC. A general note: Isothermal titration calorimetry measures the heat released or taken up as one component is titrated into another.
Test [4] deals with T1, CDK2-cyclin A^173−432. The test is described as follows: fluorescence polarisation. This is another data set of the same source.
The target in a further test is CDK2-cyclin A^1−432 (human, UniProt P24941 1-298; P20248 1-432). The test is described as follows: pull-down.

The values that follow come from paper PMC8419023 (Structure (London, England : 1993), 2021).

Read-outs that look alike come from different tables or passages of the source. No end group written: not given here.

As usually defined, the Kd is the free concentration of one partner at which half of the binding sites on the other are occupied at equilibrium, for simple one-to-one binding. Read a low Kd as a tighter complex. The molecule SACRNLFGPV-NH2 (not fully specified (N-terminus)) [FITC-p27^27−36 peptide] had a Kd with CDK2-cyclin A^173−432 [1] of 2100 nM.

B1: Skp2^17−85 (domain or fragment)
chain: ATSFTWGWDSSKTSELLSGMGVSALEKEEPDSENIPQELLSNLGHPESPPRKRLKSKGSDKDFVIVRRP
The IC50 is the concentration at which inhibition is half-maximal. A high value points to lower potency. For B1, the IC50 with CDK2-cyclin A^173−432 [2] amounted to 13.4 µM; with CDK2-cyclin A^173−432 [4] it was 5.1 µM. In the test with CDK2-cyclin A^173−432 [3], the affinity, expressed as Kd, was 496 nM.

B2: GST-Skp2^1−85 (domain or fragment)
chain: MHRKHLQEIPDLSSNVATSFTWGWDSSKTSELLSGMGVSALEKEEPDSENIPQELLSNLGHPESPPRKRLKSKGSDKDFVIVRRP
Turning to B2, the binding result in the test with CDK2-cyclin A^1−432 is reported as “binds”.

B3: GST-Skp2^1−74 (domain or fragment)
chain: MHRKHLQEIPDLSSNVATSFTWGWDSSKTSELLSGMGVSALEKEEPDSENIPQELLSNLGHPESPPRKRLKSKG
As for B3, in the test with CDK2-cyclin A^1−432, the binding result is “binds”.

B4: GST-Skp2^1−53 (domain or fragment)
chain: MHRKHLQEIPDLSSNVATSFTWGWDSSKTSELLSGMGVSALEKEEPDSENIPQ
For the molecule B4, the binding result in the test with CDK2-cyclin A^1−432 was “binds”.

Consider MHRKHLQEIPDLSSNVATSFTWGWDSSKTSELLSGMGVSALEK (domain or fragment) [GST-Skp2^1−43], for which the binding result with CDK2-cyclin A^1−432 is recorded as “binds”.

B5: GST-Skp2^1−64 (domain or fragment)
chain: MHRKHLQEIPDLSSNVATSFTWGWDSSKTSELLSGMGVSALEKEEPDSENIPQELLSNLGHPES
Regarding B5, the binding result with CDK2-cyclin A^1−432 is “binds”.

B6: GST-Skp2^1−94 (domain or fragment)
chain: MHRKHLQEIPDLSSNVATSFTWGWDSSKTSELLSGMGVSALEKEEPDSENIPQELLSNLGHPESPPRKRLKSKGSDKDFVIVRRPKLNRENFPG
On to B6, for which the binding result with CDK2-cyclin A^1−432 is “binds”.
